Data published in patent US8450481B2, “Compounds for inhibiting protein aggregation, and methods for making and using them” (The Regents of the University of California, priority 2007, dated 2013).

What was measured:
[1] = tested on: HEK293T cells expressing α-syn; test: ion currents in HEK293T cells expressing α-syn; assay type: cell-based; conditions: extracellular application of 500 μM Zn^2+, +80 mv
Source text: FIG. 3K, FIG. 3L and FIG. 3M graphically illustrate data showing representative currents elicited by depolarizing the cells from a holding potential of −50 mv to a series of test potentials ranging from −80 to +80 mv, and corresponding current-voltage relationship (E; means±SE) in transduced cells. Cells expressing α-syn display a significant increase in ion currents. FIG. 3N left panel graphically illustrates representative currents at +80 mv (left panel) before (Cont), during (Zn^2+) and after (Wash) application of 500 μM Zn^2+. FIG. 3N, right panel, graphically illustrates the time course of the change in current density before, during, and after extracellular application of Zn^2+. The arrows correspond to the currents shown in the left panel (Cont, a; Zn^2+, b; and Washout, c). The increased currents in cells expressing α-syn are attenuated by Zn^2+.

SYN [2] = target: T1, SYN (Homo sapiens, UniProt P37840); test: cell free SYN aggregation assay with immunoblot; assay type: biochemical; conditions: for blocking SYN aggregation in cell free system, compared with the other peptides and controls: immunoblot
Experimental: The peptides of the invention were tested in a cell free system with the appropriate controls (smaller and larger peptides, amino acid (aa) substitutions, scrambled sequence). For this purpose recombinant SYN (10 uM) was incubated at 37 and 65 degrees C. for 0, 4, 6, 12 and 24 with the peptides at 0, 1 and 10 uM. Control experiments where performed with beta and gamma-synuclein as well as with a mutant SYN molecule that cannot bind the peptide. The mixture was run in a gel, followed by immunoblot testing with SYN antibodies.

[3] = tested on: neuronal cultures overexpressing α-syn; test: neuronal viability by LDH assay in neuronal cultures overexpressing α-syn; assay type: cell-based
Source text: FIG. 17 illustrates the effects of a peptide blocker of α-syn aggregation of this invention in neuronal viability.

[4] = tested on: neuronal cultures overexpressing α-syn; test: intracellular calcium influx by Fluo-4 and FLIPR assay in neuronal cultures overexpressing α-syn; assay type: cell-based; conditions: after 24 hrs at 37° C., compared to vehicle and scrambled peptide controls
Source text: FIG. 18 illustrates the effects of a peptide blocker of α-syn aggregation of this invention in neuronal calcium levels. FIG. 18A is a micrograph illustration showing that in neuronal cultures overexpressing α-syn there is a significant time dependent increase in intracellular calcium influx as determined by Fluo-4 and the FLIPR assay. […] (arrow) compared to vehicle and scrambled peptide controls. Data from these studies is graphically summarized on the right hand panels.

α-syn = target: T2, α-syn (Homo sapiens, UniProt P37840); test: intraventricular infusion in α-syn transgenic mice; assay type: in vivo
T2 construct: from tissue; host or cells: brain (hippocampus) of thy1-α-syn transgenic mice
Experimental: FIG. 19 illustrates the effects of peptide blocker of α-syn aggregation in vivo in α-syn (α-syn) transgenic mice. FIG. 19A illustrates the experimental design: for these studies the thy1-overexpressing α-syn received intraventricular infusions with osmotic minipumps of control scrambled peptide, or the exemplary peptide of this invention 96-102 KKDQLGK (SEQ ID NO:1) for 6 weeks, at 30 μM peptide, where 200 μl of solution is minipumped into the lateral ventricle of the animal.

SYN [5] = target: T1, SYN; test: α-syn aggregation/accumulation in neuronal cultures overexpressing α-syn (B103 neuronal cell line, lentivirus SYN); assay type: cell-based; parameters: expressed in transfected cells; host or cells: B103 neuronal cell line, lentiviral transduction; conditions: 24 hrs
Experimental: The B103 neuronal cell line was infected with a lentivirus expressing SYN (wildtype) or GFP (control) and cells expressing SYN were exposed to the peptides at 0, 1 and 10 uM for 24 hrs. Cells were assayed for SYN aggregation by immunoblot, neurite outgrowth and survival. […] The peptide KKDQLGK (SEQ ID NO:1) and control peptides can be injected into the brain of SYN transgenic (tg) mice to test for in vivo effects.

Compound | increased ion currents in cells expressing α-syn [1] | blocking SYN aggregation in cell free system, compared with the other peptides and controls (SYN [2]) | α-syn aggregation, cell free immunoblot assays (SYN [2]; at 37° C. and 65° C.) | neuronal viability as assayed by the LDH assay [3] | neuronal calcium influx [4] | levels of monomeric and aggregated α-syn, immunoblot (α-syn; infusion, compared to scrambled peptide controls) | neuronal α-syn accumulation in the hippocampus (α-syn; intraventricular infusion 6 weeks, 30 μM peptide, compared to scrambled peptide) | blocking SYN aggregation in neuronal cell based system, compared with the other peptides and controls (SYN [5]; immunoblot, B103 cells expressing SYN) | α-syn accumulation in neuronal cultures overexpressing α-syn (SYN [5]; peptide at 1 uM, compared to vehicle)
[Zn+2] [Zn^2+] | attenuated | – | – | – | – | – | – | – | –
EKTKEQVTN [amino acids 57-65 of SYN] | – | most effective at blocking SYN aggregation | – | – | – | – | – | – | –
KKDQLGK [amino acids 96-102 of human SYN] | – | most effective at blocking SYN aggregation | reduced aggregation | improved neuronal viability | reduced neuronal calcium influx | significant reduction | significant reduction in neuronal α-syn accumulation | most effective at blocking SYN aggregation | reduced accumulation of α-syn dimer
